± gives the standard deviation of the averaged measurements.
Assay: total protein half-life in vivo (active degradation + dilution); higher = more stable protein
[1] = E. coli NCM3722 delta-clpP, growth: N-lim chemostat, doubling time 6 h
[2] = E. coli NCM3722 delta-hslV, growth: N-lim chemostat, doubling time 6 h
[3] = E. coli NCM3722 delta-lon, growth: N-lim chemostat, doubling time 6 h
[4] = E. coli NCM3722 delta-smpB, growth: N-lim chemostat, doubling time 6 h
[5] = wild type E. coli NCM3722, growth: N-lim chemostat, doubling time 6 h
[6] = wild type E. coli NCM3722, growth: N-lim chemostat, doubling time 12 h
[7] = E. coli NCM3722 delta-clpP delta-lon delta-hslV, growth: N-lim chemostat, doubling time 6 h
[8] = wild type E. coli NCM3722, growth: C-lim chemostat, doubling time 3 h
[9] = wild type E. coli NCM3722, growth: C-lim chemostat, doubling time 6 h
[10] = wild type E. coli NCM3722, growth: C-lim chemostat, doubling time 12 h
[11] = wild type E. coli NCM3722, growth: P-lim chemostat, doubling time 6 h
[12] = wild type E. coli NCM3722, growth: P-lim chemostat, doubling time 12 h

| Sequence | total protein half-life in vivo [1] | total protein half-life in vivo [2] | total protein half-life in vivo [3] | total protein half-life in vivo [4] | total protein half-life in vivo [5] | total protein half-life in vivo [6] | total protein half-life in vivo [7] | total protein half-life in vivo [8] | total protein half-life in vivo [9] | total protein half-life in vivo [10] | total protein half-life in vivo [11] | total protein half-life in vivo [12] |
| --- | --- | --- | --- | --- | --- | --- | --- | --- | --- | --- | --- | --- |
| MFTIKTDDLTHPAVQALVAYHISGMLQQSPPESSHALDVQKLRNPTVTFWSVWEGEQLAGIGALKLLDDKHGELKSMRTAPNYLRRGVASLILRHILQVAQDRCLHRLSLETGTQAGFTACHQLYLKHGFADCEPFADYRLDPHSRFLSLTLCENNELP | 1.46 ± 0.029 h | 0.809 h | 0.314 h | 0.854 ± 0.023 h | 1.03 ± 0.61 h | 1.92 h | – | – | – | – | – | – |
| MGAYLIRRLLLVIPTLWAIITINFFIVQIAPGGPVDQAIAAIEFGNAGVLPGAGGEGVRASHAQTGVGNISDSNYRGGRGLDPEVIAEITHRYGFDKPIHERYFKMLWDYIRFDFGDSLFRSASVLTLIKDSLPVSITLGLWSTLIIYLVSIPLGIRKAVYNGSRFDVWSSAFIIIGYAIPAFLFAILLIVFFAGGSYFDLFPLRGLVSANFDSLPWYQKITDYLWHITLPVLATVIGGFAALTMLTKNSFLDEVRKQYVVTARAKGVSEKNILWKHVFRNAMLLVIAGFPATFISMFFTGSLLIEVMFSLNGLGLLGYEATVSRDYPVMFGTLYIFTLIGLLLNIVSDISYTLVDPRIDFEGR [P0AFU0] | 5.97 h | 6.39 ± 0.7 h | 5.52 ± 0.49 h | 5.85 ± 0.32 h | 5.33 h | 11.8 ± 1.6 h | 7.09 ± 0.14 h | 3.47 ± 0.61 h | 5.83 ± 1.1 h | 13.9 ± 1.7 h | 6.2 h | 12.4 ± 0.79 h |
| MGDSILSQAEIDALLNGDSEVKDEPTASVSGESDIRPYDPNTQRRVVRERLQALEIINERFARHFRMGLFNLLRRSPDITVGAIRIQPYHEFARNLPVPTNLNLIHLKPLRGTGLVVFSPSLVFIAVDNLFGGDGRFPTKVEGREFTHTEQRVINRMLKLALEGYSDAWKAINPLEVEYVRSEMQVKFTNITTSPNDIVVNTPFHVEIGNLTGEFNICLPFSMIEPLRELLVNPPLENSRNEDQNWRDNLVRQVQHSQLELVANFADISLRLSQILKLNPGDVLPIEKPDRIIAHVDGVPVLTSQYGTLNGQYALRIEHLINPILNSLNEEQPK | – | – | – | – | – | – | 4.44 ± 0.11 h | 2.17 ± 0.39 h | 3.96 ± 0.9 h | 6.79 ± 0.98 h | – | – |
| MGEISITKLLVVAALVVLLFGTKKLRTLGGDLGAAIKGFKKAMNDDDAAAKKGADVDLQAEKLSHKE [P0A843] | 1.57 ± 0.29 h | 1.48 ± 0.19 h | 1.01 ± 0.26 h | 1.05 ± 0.24 h | 1.79 h | 2.14 ± 0.98 h | 1.78 ± 1 h | 0.833 ± 0.13 h | 0.983 h | 1.3 ± 0.34 h | 0.79 h | 1.59 ± 0.77 h |
| MGFTTRVKSEASEKKPFNFALFWDKYGTFFILAIIVAIFGSLSPEYFLTTNNITQIFVQSSVTVLIGMGEFFAILVAGIDLSVGAILALSGMVTAKLMLAGVDPFLAAMIGGVLVGGALGAINGCLVNWTGLHPFIITLGTNAIFRGITLVISDANSVYGFSFDFVNFFAASVIGIPVPVIFSLIVALILWFLTTRMRLGRNIYALGGNKNSAFYSGIDVKFHILVVFIISGVCAGLAGVVSTARLGAAEPLAGMGFETYAIASAIIGGTSFFGGKGRIFSVVIGGLIIGTINNGLNILQVQTYYQLVVMGGLIIAAVALDRLISK | – | 5.22 h | – | – | – | – | – | – | 5.91 h | – | – | – |
| MGKAVIAIHGGAGAISRAQMSLQQELRYIEALSAIVETGQKMLEAGESALDVVTEAVRLLEECPLFNAGIGAVFTRDETHELDACVMDGNTLKAGAVAGVSHLRNPVLAARLVMEQSPHVMMIGEGAENFAFARGMERVSPEIFSTSLRYEQLLAARKEGATVLDHSGAPLDEKQKMGTVGAVALDLDGNLAAATSTGGMTNKLPGRVGDSPLVGAGCYANNASVAVSCTGTGEVFIRALAAYDIAALMDYGGLSLAEACERVVMEKLPALGGSGGLIAIDHEGNVALPFNTEGMYRAWGYAGDTPTTGIYREKGDTVATQ | 3.77 ± 0.08 h | 3.58 ± 0.043 h | 3.62 ± 0.16 h | 3.16 ± 0.25 h | 3.47 ± 0.42 h | 4.78 ± 0.12 h | 4.9 ± 0.24 h | 2.78 ± 0.19 h | 4.99 ± 0.29 h | 11.2 ± 4.6 h | 4.75 ± 0.052 h | 8.26 ± 0.14 h |
| MGKLGENVPLLIDKAVDFMASSQAFREYLKKLPPRNAIPSGIPDESVPLYLQRLEYYRRLYRPKQVEGQ [Q2M7R5] | 4.46 ± 1.4 h | 3.56 h | 3.4 h | 3.22 ± 0.16 h | 2.94 ± 0.43 h | 4.57 ± 1.1 h | – | 1.99 ± 0.42 h | 4.09 ± 0.43 h | 4.69 h | 3.73 ± 0.57 h | 8.27 ± 0.33 h |
